Laboratory results from US20240010750A1 (Bayer, published 2024).

Assays:
human Plasmin = human Plasmin (human, UniProt P00747 97-580; P00747 581-810, limits assumed); experiment: cell-based or functional assay
[1] = biological target: T1, rabbit alpha2-Antiplasmin (rabbit (Oryctolagus cuniculus)); experiment: ELISA, coated antigen, 1st exp.
T1 construct: Made in house in HEK293 cells, purified by Ni-IMAC and SEC (a His tag is implied but not described); also called rabbit A2AP; Oryctolagus cuniculus A2AP
T1 chain: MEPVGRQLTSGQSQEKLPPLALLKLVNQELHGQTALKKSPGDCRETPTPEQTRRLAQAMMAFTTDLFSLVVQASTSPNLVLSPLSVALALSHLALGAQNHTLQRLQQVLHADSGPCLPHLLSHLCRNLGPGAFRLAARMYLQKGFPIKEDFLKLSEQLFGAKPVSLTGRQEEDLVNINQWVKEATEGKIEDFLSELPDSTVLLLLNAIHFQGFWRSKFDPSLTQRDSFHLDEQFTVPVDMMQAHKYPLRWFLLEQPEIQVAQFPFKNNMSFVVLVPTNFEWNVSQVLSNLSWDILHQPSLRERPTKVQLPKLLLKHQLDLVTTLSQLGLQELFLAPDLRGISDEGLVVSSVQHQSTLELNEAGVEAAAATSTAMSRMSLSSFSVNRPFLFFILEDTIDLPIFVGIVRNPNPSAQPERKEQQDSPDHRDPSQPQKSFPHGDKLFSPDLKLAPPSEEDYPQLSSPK

human alpha2-Antiplasmin [2] = biological target: T2, human alpha2-Antiplasmin (human, UniProt P08697 40-491); experiment: ELISA, coated antigen, 1st exp.
T2 construct: Bought (antibodies online, ABIN2544306); also called human A2AP; a2AP
T2 sequence: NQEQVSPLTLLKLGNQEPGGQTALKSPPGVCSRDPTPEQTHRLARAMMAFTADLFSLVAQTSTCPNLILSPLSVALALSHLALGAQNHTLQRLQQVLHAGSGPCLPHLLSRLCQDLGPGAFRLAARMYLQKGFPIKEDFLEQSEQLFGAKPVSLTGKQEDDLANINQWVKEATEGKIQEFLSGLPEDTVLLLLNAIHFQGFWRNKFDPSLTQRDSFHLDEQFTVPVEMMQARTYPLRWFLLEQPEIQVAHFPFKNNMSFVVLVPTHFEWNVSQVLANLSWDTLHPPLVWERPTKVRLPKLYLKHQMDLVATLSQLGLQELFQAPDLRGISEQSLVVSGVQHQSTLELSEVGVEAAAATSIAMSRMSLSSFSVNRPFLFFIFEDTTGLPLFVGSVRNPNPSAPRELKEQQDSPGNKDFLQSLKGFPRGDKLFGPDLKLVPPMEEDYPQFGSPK

[3] = biological target: T1, rabbit alpha2-Antiplasmin; experiment: ELISA, coated antigen, 3rd exp.
Experimental: (§1) A standard ELISA format was used for analyzing the binding affinity of Fabs of this invention to human and rabbit alpha-2-Antiplasmin, respectively. Antigens were coated to black 384 well Maxisorp microtiter plates (Nunc; catalogue number 460518), diluted to a concentration of 1 μg/ml in 1× Coating Buffer (Candor Bioscience; catalogue number 121125). Plates were incubated overnight at 4° C. After overnight incubation, plates were washed 2× with 50 μl/well using PBS+0.05% Tween 20. Following this, 50 μl/well of blocking buffer (Smart Block; Candor Bioscience; catalogue number 113500) was added and the plates were incubated for 1 hour at room temperature. Afterwards, plates were washed for 3× using […] PBS+0.05% Tween 20 buffer. Fabs of this invention were added at different concentrations in a final volume of 30 μl/well. Plates were incubated for 1 hour at room temperature. Following this incubation step, plates were washed for 3× using 50 μl/well of a PBS+0.05% Tween 20 buffer. For the detection of bound Fabs and full-length antibodies, the anti-Human Lambda Light Chains (Bound and Free)—Peroxidase antibody (Sigma; catalogue number A5175) was diluted by the factor of 1:10.000 in 10% Blocking Buffer. […]
(§2) For measurement, the Infinite f500 reader (Tecan) was used. Measurement mode: Fluorescence; Top reading; Ex 535 nm; Em 590 nm.

human alpha2-Antiplasmin [4] = biological target: T2, human alpha2-Antiplasmin; experiment: ELISA, coated antigen, 3rd exp.
Experimental: as §1, §2

Chain of human Plasmin (P00747 97-580 limits assumed, chain 1 of 2): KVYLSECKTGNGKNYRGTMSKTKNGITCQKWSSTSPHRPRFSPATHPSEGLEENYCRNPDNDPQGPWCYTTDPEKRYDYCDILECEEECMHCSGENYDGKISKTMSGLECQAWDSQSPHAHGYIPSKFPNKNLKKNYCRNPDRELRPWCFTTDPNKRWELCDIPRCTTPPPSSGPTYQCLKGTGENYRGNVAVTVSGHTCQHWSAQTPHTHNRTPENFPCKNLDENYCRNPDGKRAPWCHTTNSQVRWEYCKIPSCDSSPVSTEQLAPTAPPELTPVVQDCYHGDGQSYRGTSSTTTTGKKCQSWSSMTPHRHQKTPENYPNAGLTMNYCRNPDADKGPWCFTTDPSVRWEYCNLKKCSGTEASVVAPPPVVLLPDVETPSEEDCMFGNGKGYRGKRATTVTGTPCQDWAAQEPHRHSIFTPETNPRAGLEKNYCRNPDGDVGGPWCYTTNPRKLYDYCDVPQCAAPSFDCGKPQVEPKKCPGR
Chain of human Plasmin (P00747 581-810 limits assumed, chain 2 of 2): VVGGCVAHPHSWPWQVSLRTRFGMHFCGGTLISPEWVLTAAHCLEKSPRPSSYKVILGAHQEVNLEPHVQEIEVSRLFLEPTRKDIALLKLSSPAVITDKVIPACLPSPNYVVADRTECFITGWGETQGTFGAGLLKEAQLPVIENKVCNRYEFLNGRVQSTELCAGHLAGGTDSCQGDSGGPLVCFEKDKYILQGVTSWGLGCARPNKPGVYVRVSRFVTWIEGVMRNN

- IC50 [M], inhibition of plasmin proteolytic activity (human Plasmin): > 1e-05 M
- EC50 [1]: 6 nM
- EC50 (human alpha2-Antiplasmin [2]): 120 nM
- EC50 [3]: 6.2 nM
- EC50 (human alpha2-Antiplasmin [4]): 130 nM
B1: TPP-12387 hIgG1 (antibody, V domains shown)
VH: EVQLLESGGGLVQPGGSLRLSCAASGFTFDDYAMSWVRQAPGKGLEWVSAIGTGGGTYYADSVKGRFTISRDNSKNTLYLQMNSLRAEDTAVYYCAREYYDSSGYYHLDYWGQGTLVTVSS
VL: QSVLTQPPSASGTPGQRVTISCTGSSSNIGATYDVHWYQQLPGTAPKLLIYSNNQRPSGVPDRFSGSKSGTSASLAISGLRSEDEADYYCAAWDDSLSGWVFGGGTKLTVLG
notes: Fully human IgG1 lambda from the BioInvent n-CoDeR Fab lambda library; parental lead antibody
